Measurements: US20240360227A1

Key:
[1] = target: Recombinant human his-tagged IGF R extracellular domain protein (human) (UniProt P08069); assay: SPR, Ab captured via anti-huIgG Fc, pH 7.4
[2] = target: Recombinant human his-tagged IGF R extracellular domain protein (human) (UniProt P08069); assay: SPR, Ab captured via anti-huIgG Fc, dissociation at pH 6

Binder	Kd [1]	koff [1]	kon [1]	Kd [2]	koff [2]	kon [2]
VRDN-02044 (antibody, V domains shown) VH: QVQLQESGPGLVKPSETLSLTCTVSGYSITGGYLWNWIRQPPGKGLEWIGYISYDGTNNYKPSLKDRVTISRDTSKNQFSLKLSSVTAADTAVYYCARYGRVFFDYWGQGTLVTVSS VL: DIVMTQSPLSLPVTPGEPASISCRSSQSIVHSNGNTYLQWYLQKPGQSPQLLIYHVSNRLYGVPDRFSGSGSGTDFTLKISRVEAEDVGVYYCFQGSHVPWTFGQGTKVEIK	0.551 nM	4.69e-05 s⁻¹	85200 M⁻¹ s⁻¹	0.759 nM	6.27e-05 s⁻¹	82600 M⁻¹ s⁻¹
VRDN-02005 (antibody, V domains shown) VH: QVQLQESGPGLVKPSETLSLTCTVSGYSIHGGYLWNWIRQPPGKGLEWIGYISYDGTNNYKPSLKDRVTISRDTSKNQFSLKLSSVTAADTAVYYCARYGRVFFDYWGQGTLVTVSS VL: DIVMTQSPLSLPVTPGEPASISCRSSQSIVHSNGNTYLQWYLQKPGQSPQLLIYKVSNRLYGVPDRFSGSGSGTDFTLKISRVEAEDVGVYYCFQGSHVPWTFGQGTKVEIK	0.71 nM	6.09e-05 s⁻¹	85800 M⁻¹ s⁻¹	1.16 nM	0.000119 s⁻¹	102000 M⁻¹ s⁻¹
VRDN-02050 (antibody, V domains shown) VH: QVQLQESGPGLVKPSETLSLTCTVSGYSITGGYLWNWIRQPPGKGLEWIGYISYDGTNNYKPSLKDRVTISRDTSKNQFSLKLSSVTAADTAVYYCARYGRVFFDYWGQGTLVTVSS VL: DIVMTQSPLSLPVTPGEPASISCRSSQSIVHSNGNTYLQWYLQKPGQSPQLLIYKVSNRLHGVPDRFSGSGSGTDFTLKISRVEAEDVGVYYCFQGSHVPWTFGQGTKVEIK	0.603 nM	6.7e-05 s⁻¹	111000 M⁻¹ s⁻¹	1.2 nM	9.87e-05 s⁻¹	82000 M⁻¹ s⁻¹
VRDN-02051 (antibody, V domains shown) VH: QVQLQESGPGLVKPSETLSLTCTVSGYSITGGYLWNWIRQPPGKGLEWIGYISYDGTNNYKPSLKDRVTISRDTSKNQFSLKLSSVTAADTAVYYCARYGRVFFDYWGQGTLVTVSS VL: DIVMTQSPLSLPVTPGEPASISCRSSQSIVHSNGNTYLQWYLQKPGQSPQLLIYKVSNRLYGVPDRFSGSGSGTDFTLKISRVEAEDVGVYYCHQGSHVPWTFGQGTKVEIK	1.03 nM	7.59e-05 s⁻¹	74000 M⁻¹ s⁻¹	1.3 nM	8.62e-05 s⁻¹	66600 M⁻¹ s⁻¹
VRDN-02045 (antibody, V domains shown) VH: QVQLQESGPGLVKPSETLSLTCTVSGYSITGGYLWNWIRQPPGKGLEWIGYISYDGTNNYKPSLKDRVTISRDTSKNQFSLKLSSVTAADTAVYYCARYGRVFFDYWGQGTLVTVSS VL: DIVMTQSPLSLPVTPGEPASISCRSSQSIVHSNGNTYLQWYLQKPGQSPQLLIYKHSNRLYGVPDRFSGSGSGTDFTLKISRVEAEDVGVYYCFQGSHVPWTFGQGTKVEIK	1.1 nM	6.49e-05 s⁻¹	59200 M⁻¹ s⁻¹	1.66 nM	8.63e-05 s⁻¹	51900 M⁻¹ s⁻¹
VRDN-02052 (antibody, V domains shown) VH: QVQLQESGPGLVKPSETLSLTCTVSGYSITGGYLWNWIRQPPGKGLEWIGYISYDGTNNYKPSLKDRVTISRDTSKNQFSLKLSSVTAADTAVYYCARYGRVFFDYWGQGTLVTVSS VL: DIVMTQSPLSLPVTPGEPASISCRSSQSIVHSNGNTYLQWYLQKPGQSPQLLIYKVSNRLYGVPDRFSGSGSGTDFTLKISRVEAEDVGVYYCFHGSHVPWTFGQGTKVEIK	0.564 nM	5.7e-05 s⁻¹	101000 M⁻¹ s⁻¹	1.33 nM	0.000156 s⁻¹	117000 M⁻¹ s⁻¹
VRDN-02053 (antibody, V domains shown) VH: QVQLQESGPGLVKPSETLSLTCTVSGYSITGGYLWNWIRQPPGKGLEWIGYISYDGTNNYKPSLKDRVTISRDTSKNQFSLKLSSVTAADTAVYYCARYGRVFFDYWGQGTLVTVSS VL: DIVMTQSPLSLPVTPGEPASISCRSSQSIVHSNGNTYLQWYLQKPGQSPQLLIYKVSNRLYGVPDRFSGSGSGTDFTLKISRVEAEDVGVYYCFQHSHVPWTFGQGTKVEIK	7.18 nM	0.00243 s⁻¹	338000 M⁻¹ s⁻¹	3.48 nM	0.000193 s⁻¹	55600 M⁻¹ s⁻¹
VRDN-02055 (antibody, V domains shown) VH: QVQLQESGPGLVKPSETLSLTCTVSGYSITGGYLWNWIRQPPGKGLEWIGYISYDGTNNYKPSLKDRVTISRDTSKNQFSLKLSSVTAADTAVYYCARYGRVFFDYWGQGTLVTVSS VL: DIVMTQSPLSLPVTPGEPASISCRSSQSIVHSNGNTYLQWYLQKPGQSPQLLIYKVSNRLYGVPDRFSGSGSGTDFTLKISRVEAEDVGVYYCFQGSHHPWTFGQGTKVEIK	0.509 nM	4.92e-05 s⁻¹	96600 M⁻¹ s⁻¹	1.1 nM	0.000101 s⁻¹	91800 M⁻¹ s⁻¹
VRDN-02046 (antibody, V domains shown) VH: QVQLQESGPGLVKPSETLSLTCTVSGYSITGGYLWNWIRQPPGKGLEWIGYISYDGTNNYKPSLKDRVTISRDTSKNQFSLKLSSVTAADTAVYYCARYGRVFFDYWGQGTLVTVSS VL: DIVMTQSPLSLPVTPGEPASISCRSSQSIVHSNGNTYLQWYLQKPGQSPQLLIYKVHNRLYGVPDRFSGSGSGTDFTLKISRVEAEDVGVYYCFQGSHVPWTFGQGTKVEIK	0.569 nM	5.23e-05 s⁻¹	92000 M⁻¹ s⁻¹	1.29 nM	0.000103 s⁻¹	79900 M⁻¹ s⁻¹
VRDN-02056 (antibody, V domains shown) VH: QVQLQESGPGLVKPSETLSLTCTVSGYSITGGYLWNWIRQPPGKGLEWIGYISYDGTNNYKPSLKDRVTISRDTSKNQFSLKLSSVTAADTAVYYCARYGRVFFDYWGQGTLVTVSS VL: DIVMTQSPLSLPVTPGEPASISCRSSQSIVHSNGNTYLQWYLQKPGQSPQLLIYKVSNRLYGVPDRFSGSGSGTDFTLKISRVEAEDVGVYYCFQGSHVHWTFGQGTKVEIK	0.237 nM	1.98e-05 s⁻¹	83500 M⁻¹ s⁻¹	1.13 nM	9.75e-05 s⁻¹	86000 M⁻¹ s⁻¹
VRDN-02060 (antibody, V domains shown) VH: QVQLQESGPGLVKPSETLSLTCTVSGYSITGGYLWNWIRQPPGKGLEWIGYISYHGTNNYKPSLKDRVTISRDTSKNQFSLKLSSVTAADTAVYYCARYGRVFFDYWGQGTLVTVSS VL: DIVMTQSPLSLPVTPGEPASISCRSHQSIVHSNGNTYLQWYLQKPGQSPQLLIYKVSNRLYGVPDRFSGSGSGTDFTLKISRVEAEDVGVYYCFQGSHVPWTFGQGTKVEIK	0.249 nM	2.77e-05 s⁻¹	111000 M⁻¹ s⁻¹	0.394 nM	6.07e-05 s⁻¹	154000 M⁻¹ s⁻¹

Further binders by falling Kd [1], results first:

Kd [1]	koff [1]	kon [1]	Kd [2]	koff [2]	kon [2]	Binder
0.946 nM	7.92e-05 s⁻¹	83700 M⁻¹ s⁻¹	1.15 nM	9.15e-05 s⁻¹	79500 M⁻¹ s⁻¹	VRDN-02049 (antibody, V domains shown) VH: QVQLQESGPGLVKPSETLSLTCTVSGYSITGGYLWNWIRQPPGKGLEWIGYISYDGTNNYKPSLKDRVTISRDTSKNQFSLKLSSVTAADTAVYYCARYGRVFFDYWGQGTLVTVSS VL: DIVMTQSPLSLPVTPGEPASISCRSSQSIVHSNGNTYLQWYLQKPGQSPQLLIYKVSNRHYGVPDRFSGSGSGTDFTLKISRVEAEDVGVYYCFQGSHVPWTFGQGTKVEIK
0.838 nM	6.19e-05 s⁻¹	73900 M⁻¹ s⁻¹	1.14 nM	8.07e-05 s⁻¹	70700 M⁻¹ s⁻¹	VRDN-02054 (antibody, V domains shown) VH: QVQLQESGPGLVKPSETLSLTCTVSGYSITGGYLWNWIRQPPGKGLEWIGYISYDGTNNYKPSLKDRVTISRDTSKNQFSLKLSSVTAADTAVYYCARYGRVFFDYWGQGTLVTVSS VL: DIVMTQSPLSLPVTPGEPASISCRSSQSIVHSNGNTYLQWYLQKPGQSPQLLIYKVSNRLYGVPDRFSGSGSGTDFTLKISRVEAEDVGVYYCFQGHHVPWTFGQGTKVEIK
0.836 nM	8.5e-05 s⁻¹	102000 M⁻¹ s⁻¹	1.18 nM	9.52e-05 s⁻¹	80800 M⁻¹ s⁻¹	VRDN-02058 (antibody, V domains shown) VH: QVQLQESGPGLVKPSETLSLTCTVSGYSITGGYLWNWIRQPPGKGLEWIGYISYDGTNNYKPSLKDRVTISRDTSKNQFSLKLSSVTAADTAVYYCARYGRVFFDYWGQGTLVTVSS VL: DIVMTQSPLSLPVTPGEPASISCRSSQSIVHSNGNTYLQWYLQKPGQSPQLLIYKVSNRLYGVPDRFSGSGSGTDFTLKISRVEAEDVGVYYCFQGSHVPWHFGQGTKVEIK
0.72 nM	6.9e-05 s⁻¹	95800 M⁻¹ s⁻¹	1.4 nM	0.000165 s⁻¹	118000 M⁻¹ s⁻¹	VRDN-02057 (antibody, V domains shown) VH: QVQLQESGPGLVKPSETLSLTCTVSGYSITGGYLWNWIRQPPGKGLEWIGYISYDGTNNYKPSLKDRVTISRDTSKNQFSLKLSSVTAADTAVYYCARYGRVFFDYWGQGTLVTVSS VL: DIVMTQSPLSLPVTPGEPASISCRSSQSIVHSNGNTYLQWYLQKPGQSPQLLIYKVSNRLYGVPDRFSGSGSGTDFTLKISRVEAEDVGVYYCFQGSHVPHTFGQGTKVEIK
0.622 nM	5.34e-05 s⁻¹	85900 M⁻¹ s⁻¹	1.48 nM	9.84e-05 s⁻¹	66600 M⁻¹ s⁻¹	VRDN-02047 (antibody, V domains shown) VH: QVQLQESGPGLVKPSETLSLTCTVSGYSITGGYLWNWIRQPPGKGLEWIGYISYDGTNNYKPSLKDRVTISRDTSKNQFSLKLSSVTAADTAVYYCARYGRVFFDYWGQGTLVTVSS VL: DIVMTQSPLSLPVTPGEPASISCRSSQSIVHSNGNTYLQWYLQKPGQSPQLLIYKVSHRLYGVPDRFSGSGSGTDFTLKISRVEAEDVGVYYCFQGSHVPWTFGQGTKVEIK
0.55 nM	4.17e-05 s⁻¹	75700 M⁻¹ s⁻¹	1.03 nM	8.1e-05 s⁻¹	78800 M⁻¹ s⁻¹	VRDN-02048 (antibody, V domains shown) VH: QVQLQESGPGLVKPSETLSLTCTVSGYSITGGYLWNWIRQPPGKGLEWIGYISYDGTNNYKPSLKDRVTISRDTSKNQFSLKLSSVTAADTAVYYCARYGRVFFDYWGQGTLVTVSS VL: DIVMTQSPLSLPVTPGEPASISCRSSQSIVHSNGNTYLQWYLQKPGQSPQLLIYKVSNHLYGVPDRFSGSGSGTDFTLKISRVEAEDVGVYYCFQGSHVPWTFGQGTKVEIK
